Tests used:
[1] = system: MS2 coat protein; test: apparent KD of MS2 coat protein, switch ON state; designed switch direction (-1 OFF switch, 1 ON switch): 1; higher = weaker reporter binding; settings: FMN input: 0 or 200 uM; Eterna round: R93 (includes R88 designs)
How it was run: (§1)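 Values are apparent KD, taken as the median for each design of fits to normalised binding curves from individual clusters. The designed RNA switches were transcribed on-chip from Illumina sequencing clusters and exposed to SNAP-549-labelled MS2 coat protein at twofold increasing amounts from 0.7 or 1.5 nM to 3 µM. Titration used 100 mM Tris-HCl pH 7.5, 80 mM KCl and 4 mM MgCl2, without or with constant ligand.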

[2] = system: MS2 coat protein; test: apparent KD of MS2 coat protein, switch OFF state (with FMN for OFF switches, without FMN for ON switches); designed switch direction (-1 OFF switch, 1 ON switch): 1; higher = weaker reporter binding; settings: FMN input: 0 or 200 uM; Eterna round: R93 (includes R88 designs)
How it was run: as §1

| Sequence | apparent KD of MS2 coat protein [1] [nM] | apparent KD of MS2 coat protein [2] [nM] |
| --- | --- | --- |
| CGCGGGCCCGGGCAGGAUAUCCGGCCUCGGACAUGAGGAUCACCCAUGUGGCCGAAAGGCCGGUGGGAGAAGGGCCCGGGCCCGC | 20.5 | 23.1 |
| CGAAAGGAGAGAGAGGAUAUCCAAAGGAAAACAUGAGGAUCACCCAUGUAGAAGGUAGGAGAUUGGGAGAAGGCUCAAGACAGAG [salish99-ss2-143(!!!!)] | 21.3 | 36.1 |
| AAAAGACAUGAGGAUCACCCAUGUGAAAACGUAGGAGGAUAUGUCGUGAAAAAAGACUUGACAGAAGGCCUGUGUC [SS1 - 34] | 28.1 | 63.5 |
| AGGAAACAUGAGGAUCACCCAUGUAAAAAAUAGGGAGGAUAUGGAAACACGAAAGUGAAACCAGAAGGCUCAAAAA [77%, Mat - Mod of Eli, 23] | 13.8 | 18.2 |
| CUACAACAUGAGGAUCACCCAUGUCGUAGAAAUCAAGGAUAUGGGUCGGUAACAUGCGUACCAGAAGGUGAGGAAA [Rebicequ] | 29.3 | 30.4 |
| AAAAGACAUGAGGAUCACCCAUGUCAAGACGUAGGAGGAUAUGUCUUGAAAAAAGACUUGACAGAAGGCCUGUGUC [SS1 - 55] | 14.9 | 18.1 |
| UAAAAACAUGAGGAUCACCCAUGUGAGAACAUGGGAGGAUAUACAAAGACGAAAGUCGAAGUAGAAGGCCUAAAAU [Mat - Same State 1 - Mod - D173] | 178 | 25.7 |
| AAGAUACAUGAGGAUCACCCAUGUCGAGAGAGACGAGGAUAUCUGAAUCGAUUAGAUUACGGAGAAGGCGUGAAAA [LROPPY Same State 1 - v07_deltaG=1.9] | 19.4 | 34.3 |
| UAUAGACAUGAGGAUCACCCAUGUAGAAUUAUGGGAGGAUAUACAAAGACGAGAGUCAGAGUAGAAGGCCUAGGAC [salish99-ss1-155] | 22.6 | 49.6 |
| GGGAGACAUGAGGAUCACCCAUGUGAGAAGAGGCGAGGAUAUCGAAAAAAAAAAAAAAAACGAGAAGGCGCGAGAG [salish99-SS1-005] | 63.7 | 28.6 |
| GUGAGACAUGAGGAUCACCCAUGUACGCGUCAGCAAGGAUAUGGGAAUAAAAGACAGAGACCAGAAGGUGCUGUUG [Arzaerri] | 22.9 | 67.5 |
| AACAAUCUAUCUGAGGAUAUGUGUCGAAAGACAUGAGGAUCACCCAUGUGAAAACAUGAAAAGACACAGAAGGCAGAUAGAUUGA [SS2: 1154] | 40.2 | 41.5 |
| GAAAAACAUGAGGAUCACCCAUGUAGAAAAAUGGGAGGAUAUACAAAGACGAAAGUCAAAGUAGAAGGCCUGAAAG [same state 77% mat/eli mod] | 24.8 | 74.4 |
| CGGAGACAUGAGGAUCACCCAUGUGAGAAGAGGCGAGGAUAUCGAAAGAAAGAAGAGAAACGAGAAGGCGCGAGGG [salish99-SS1-075] | 18.3 | 27.7 |
| AAAUAAAUGACUGAGGAUAUAUCGAUGAAUACAUGAGGAUCACCCAUGUGAUAAUAAAAAGGGUGGUAGAAGGUAGUCAACAAAC [Mod 13 of Pariah 4 by Hyphema in Round 1] | 95.9 | 71.9 |
| AACAAUCUAUCUGAGGAUAUGUGUCAAAAGACAUGAGGAUCACCCAUGUAAAAACAUGAAAAGACACAGAAGGCAGAUAGAUUGA [SS2: 1153] | 21.4 | 44.2 |
| AUAAAACAUGAGGAUCACCCAUGUAGACAUAUGGGAGGAUAUACUAGAUCGAAAGAUCUAGUAGAAGGUCUUUAAA [JL Mod of Eli 9] | 297 | 257 |
| AGAAAUAAAUGAGAGGAUAUCCAAAAGAAAACAUGAGGAUCACCCAUGUAAAAGAAAAUAAAAUGGGAGAAGGCUCGAAAUAAAG [80%, More Helter Skelter 2] | 22.4 | 68.5 |
| GGAAGACAUGAGGAUCACCCAUGUGGGAAUAUGGGAGGAUAUACAAAGACGAGAGUCAGAGUAGAAGGCCUAGGAC [salish99-ss1-102] | 32.8 | 105 |
| GACUAACAUGAGGAUCACCCAUGUAUUCAAACAUGAGGAUAUAUAACACAUCAUCGACGGAUAGAAGGCAUAGAUA [JR_SS001_Sub1207] | 81.1 | 71.7 |
| AGAAAUAAAUGAGAGGAUAUCCAAAAGAAAACAUGAGGAUCACCCAUGUAAAAGAAAAUAAAGUGGGAGAAGGCUCGAAAUAAAG [80%, More Helter Skelter 2] | 23.3 | 43.5 |
| AAAAUAAAAUAAAAGGAUAUAAAAUAAAAAACAUGAGGAUCACCCAUGUAAAAACAUGGGUGAAAAAAGAAGGAAAAAUAAAAAA [SS2: 70 No MS2] | 36.7 | 1.74 |

| Sequence | apparent KD of MS2 coat protein [1] [nM] | apparent KD of MS2 coat protein [2] [nM] |
| --- | --- | --- |
| AGGAAACAUGAGGAUCACCCAUGUAAAAAUAUGGGAGGAUAUACAAACAAGAAAGUCAAAGUAGAAGGCCUAAAAG [Garnet 6] | 63.7 | 152 |
| AAAAAACAUGAGGAUCACCCAUGUCUUUUGACAUGAGGAUAUGUACAGACUUCGGUCUGUACAGAAGGCAUGUAAA [SS1 - 1028] | 31.1 | 397 |
| AAAGACACGGUGCAGGAUAUAGUAAUAGUCACAUGAGGAUCACCCAUGUUCUUUUAUAAGAACGAUUAGAAGGGCGGUGAAAAAA [SameState2 Malc#10] | 182 | 92.6 |
| GGGAGGAAGAGAGAGGAUAUCCAAAGGAAAACAUGAGGAUCACCCAUGUAAAAGGUAGGAAAUUGGGAGAAGGCUCAAGAGACGG [salish99-ss2-053] | 26.7 | 34.2 |
| AAGAAACAUGAGGAUCACCCAUGUCAAGAGAGACAAGGAUAUCUGAAUUAAUUAAAUUAAGGAGAAGGUGUGAAAA [71%, Same state of confusion2, 1] | 201 | 253 |
| AAAAAACAUGAGGAUCACCCAUGUAUGAUAACAUCAGGAUAUUGGCUUGACUAUGUCUUACAAGAAGGGAUGAAAA [Same State 1.3e (Same State 1 - Omei 2 )] | 28.3 | 48.6 |
| AAUAUAUUAUCUGAGGAUAUCAUAGGAAAAACAUGAGGAUCACCCAUGUGGGAAACCUGGUCGGGUGAGAAGGUGGAUAAUAUAU [Samwise Clockwise 33 - Jieux - Same State 2] | 58.7 | 341 |
| AAUAAACAUGAGGAUCACCCAUGUAAAUGGGUACAAGGAUAUGCGAAAAGAAACAAAGAAGCAGAAGGUGUAAAGA [Ex5 sub 2] | 347 | 432 |
| AGGAAACAUGAGGAUCACCCAUGUAAAAAUAUGGGAGGAUAUACGAAGACGAAAGUAAAAGUAGAAGGCCUAAAAG [Garnet 15] | 31.8 | 108 |
| AAAAAAAAAACUCAGGAUAUAGAUCGUUGAACAUGAGGAUCACCCAUGUAGUGAAAAGCGAAAAACUAGAAGGGAGGAAAAAAAAA [SameState2-02] | 13.3 | 28.7 |
| AUACUACAUGAGGAUCACCCAUGUUGAAAUAUGGAAGGAUAUACGUAGUAAAAUAACUACGUAGAAGGUCCAGAAA [SS1 MT 22] | 18.7 | 19.6 |
| AAGAAACAUGAGGAUCACCCAUGUAGAAAUAUGGGAGGAUAUACGAAGACGAAAGUCAAAGUAGAAGGCCUAAGAA [Mat - Same State 1 - Eli mod - D105] | 36.3 | 82 |
| AACAAUCUAUCUGAGGAUAUCAUGUCAAAGACAUGAGGAUCACCCAUGUGCAGGAAAACUGCAUAUGAGAAGGCAGAUAGAUUGA [SS2 :P - 599] | 217 | 130 |
| UACAGACAUGAGGAUCACCCAUGUAGAAUUAUGGGAGGAUAUACAAAGACGAGAGUCAGAGUAGAAGGCCUAGGAC [salish99-ss1-166] | 27.3 | 62.7 |
| AAAUAACAUGAGGAUCACCCAUGUUGCAACGGUUGAGGAUAUGUGGGUGAAAAUAGCAUGGCAGAAGGCGAGUGUA [SameState1 Malc#27] | 58.1 | 31.9 |
| AAAUAACAUGAGGAUCACCCAUGUCAAAUAAAUCGAGGAUAUGGGCCCGAGUUCCGGGAGCCAGAAGGCGAAAAGA [Ceusrete] | 28.9 | 51.7 |
| AAAUAACAUGAGGAUCACCCAUGUUACAACAUUACAGGAUAUGUGGGUGAAAAUAGCAUGACAGAAGGGUACUGUA [SameState1 Malc#34] | 479 | 393 |
| UUAAAACAUGAGGAUCACCCAUGUAGAAAUAUGGGAGGAUAUACGAAGACGAAAGUCAAAGUAGAAGGCCUAAAUU [Mat - Same State 1 - Eli mod - D112] | 25.2 | 64.9 |
| AACAUACAUGAGGAUCACCCAUGUUCCGGCAGGGCAGGAUAUCCAUCGAAAGUGUUAUAAGGAGAAGGGCCAUAAA [JR_SS001_Sub013] | 31.7 | 93.3 |
| AAAAGACAUGAGGAUCACCCAUGUCCUCGGACAUGAGGAUAUGUACAGACUUCGGUCUGUACAGAAGGCAUGAAAA [SS1 - 1064] | 52 | 233 |
| AAAAUACAUGAGGAUCACCCAUGUGAAAAUAUGGAAGGAUAUCAUGGAAAAAAAAAAACAUGAGAAGGUCCAAAAA [SS! 1 MT 9] | 22 | 123 |
